The test has as its target H1 stem (recombinant HA stem construct #4900 designed based on H1N1 A/Brisbane/59/2007 HA) (influenza A virus H1N1 A/Brisbane/59/2007). In words: BLI. In general terms: BLI is a label-free optical method that tracks binding on a fibre tip over time.

somatic CR9114 Fab: the Kd (as a rule, the concentration at which binding is half-saturated) is below 0.1 nM.

Values taken from PMC13638050.
